Measured values reported in patent publication US12606635B2, “Glypican-2-binding moieties, chimeric antigen receptors and uses thereof” (Nanjing Legend Biotech Co., Ltd., priority 2020, dated 2026).

Legend:
[1] = test system: neuroblastoma SH-SY5Y xenograft; type: in vivo, NCG mice
Experimental: A single dose of untransduced T cells (10×10^6) or CAR T cells (5×10^6) was administered intravenously to tumor engrafted mice 9 days after tumor inoculation (FIG. 9A). […] At the end of obversion, 100% of monovalent CAR T cells (CAS70950VH6-BBz, CAS72669VH6-BBz) and 80% of multi-valent CAR T cells (CAS70950VH6-AS71529VH6-BBz) treated mice were alive (FIG. 9A). At day 42 post treatment, 2/5 mice (40%) treated with CAS72669VH6-BBz expressing CAR T cells were tumor-free and 3/5 mice (60%) treated with CAS70950VH6-AS71529VH6-BBz expressing CAR T cells were tumor-free without recurrence. […] The data highlighted the superiority of VHH-based CAR T cells in tumor regression and protection of mice from disease progression.
Moreover, the expansion and persistence of CAR T cells in vivo are also considered as critical predictors of durable clinical tumor regression in patients with cancer. […] Average 5.00±6.42% of CAR T cells were found in the peripheral blood of NCG mice treated with 5×10^6 CAS70950VH6-AS71529VH6-BBz CAR T cells, whereas less than 1% CAR T cells were detected in CAS70950VH6-BBz, CAS72669VH6-BBz and CAS71529VH6-BBz expressing CAR T groups. Expansion of CAR T cells in the CAS70950VH6-AS71529VH6-BBz group was inversely correlated with tumor size over time.

[2] = test system: GPC2 negative human epidermoid carcinoma cell line A-431; test: In vitro cytotoxicity assay (LDH), A-431; type: cell-based; conditions: FIG. 7G
Experimental: (§1) The pre-activated T cells were transduced with lentivirus stock in the presence of […] polybrene and 300 IU/mL IL-2. T cells and lentivirus were centrifuged at 1000 g, 32° C. for 1 h and placed in humidified cell culture incubator for transgene expression under suitable conditions. On day 5 or day 7 or day 10 post-transduction, transduced T cells were harvested and co-incubated with tumor cells at an effector (CAR T) to target cell ratio of 10:1 or 5:1 or 2:1 or 1:1 or 0.2:1 for 20 hours. Target cells were human neuroblastoma cell line SH-SY5Y (ATCC, #CRL-2266), human neuroblastoma cell line IMR-32 cells (ATCC, #CCL-127), or human epidermoid carcinoma cell line A-431 (ATCC, #CRL-1555). To assay the cytotoxicity of CAR T cells on tumor cells, the Cytotoxicity Detection Kit (LDH) (Roche, #11644793001) assay reagents were prepared according to manufacturer's protocol. Reaction mix was added to the cell-free supernatant of each sample to detect the LDH released from cells. Optical densities at OD492 nm and OD650 nm were measured by PHERStar Microplate Reader. Baseline LDH released from the target cell in the absence of effector cells and effector cell in the absence of target cells were subtracted from the total LDH amount. The target maximum release was obtained by adding Triton-X100 at a final concentration of 1% to target cells in the absence of effector cells at the time when the cytotoxicity assays initiated. […] The specific cytotoxicity was calculated by the formula: % Target cell lysis=100*[(OD CAR T cell+Target cell)−(OD CAR T cell)−(OD Target cell)+(OD Buffer background)]/(OD Target Maximum release−OD Target Minimum release).
(§2) On day 5 or day 8 or day 10 post-transduction, transduced T cells were harvested and co-incubated with tumor cells at an effector (CAR T) to target cell ratio of 10:1 or 1:1 or 0.2:1 for 20 hours. To assay the cytotoxicity of CAR T cells on tumor cells, the Cytotoxicity Detection Kit (LDH) (Roche, #11644793001) was added to the culture supernatant and the specific cytotoxicity for each CAR T cell construct was measured as described in Example 6.

[3] = test system: human neuroblastoma cell line IMR-32; test: In vitro cytotoxicity assay (LDH), IMR-32; type: cell-based; conditions: co-cultured with IMR-32, FIG. 8C
Experimental: as §1, §2

[4] = test system: human neuroblastoma cell line SH-SY5Y; test: In vitro cytotoxicity assay (LDH), SH-SY5Y; type: cell-based; conditions: SH-SY5Y, effector to target ratio 10:1, 20 hours, FIG. 8A
Experimental: The pre-activated T cells were transduced with lentivirus stock in the presence of […] polybrene and 300 IU/mL IL-2. T cells and lentivirus were centrifuged at 1000 g, 32° C. for 1 h and placed in humidified cell culture incubator for transgene expression under suitable conditions. On day 5 or day 7 or day 10 post-transduction, transduced T cells were harvested and co-incubated with tumor cells at an effector (CAR T) to target cell ratio of 10:1 or 5:1 or 2:1 or 1:1 or 0.2:1 for 20 hours. Target cells were human neuroblastoma cell line SH-SY5Y (ATCC, #CRL-2266), human neuroblastoma cell line IMR-32 cells (ATCC, #CCL-127), or human epidermoid carcinoma cell line A-431 (ATCC, #CRL-1555). To assay the cytotoxicity of CAR T cells on tumor cells, the Cytotoxicity Detection Kit (LDH) (Roche, #11644793001) assay reagents were prepared according to manufacturer's protocol. Reaction mix was added to the cell-free supernatant of each sample to detect the LDH released from cells. Optical densities at OD492 nm and OD650 nm were measured by PHERStar Microplate Reader. Baseline LDH released from the target cell in the absence of effector cells and effector cell in the absence of target cells were subtracted from the total LDH amount. The target maximum release was obtained by adding Triton-X100 at a final concentration of 1% to target cells in the absence of effector cells at the time when the cytotoxicity assays initiated. Supernatant from target cells in the absence of effector cells was used for target minimum release. The specific cytotoxicity was calculated by the formula: % Target cell lysis=100*[(OD CAR T cell+Target cell)−(OD CAR T cell)−(OD Target cell)+(OD Buffer background)]/(OD Target Maximum release−OD Target Minimum release).
as §2

SH-SY5Y = test: IFNγ release in co-culture with SH-SY5Y; type: cell-based, human; conditions: Example 7, co-culture with SH-SY5Y, FIG. 8D-8F
Excerpt: (§3) In addition to the cytotoxicity data above, supernatants from the in vitro co-culture assays were also collected to assess CAR T cells-induced cytokine release, e.g., release of interferon gamma (i.e., IFNγ), as another indicator of cytotoxicity, was quantified using a HTRF human IFNγ AlphaLISA kit (Perkin Elmer, #62HIFNGPEH) per manufacturer's instruction. […] No significant cytokine release were detected against GPC2-negative cell line A-431.
(§4) Supernatants from the in vitro co-culture assays were collected to assess CAR T cells-induced cytokine release, e.g., interferon gamma (i.e., IFNγ) release as described in Example 6. […] IFNγ was not induced in GPC2-negative A-431 cells. […] Cytokine release data was consistent with the in vitro cytotoxicity data.

IMR-32 = test: IFNγ release in co-culture with IMR-32; type: cell-based, human; conditions: Example 7, co-culture with IMR-32, FIG. 8D-8F
Excerpt: as §3, §4

[5] = 5×10^6 CAR T cells i.v., FIG. 9A

Molecule | cytotoxicity against GPC2 negative A-431 [2] | cytolytic activity compared with monovalent CAR T cells [3] | specific percentage lysis [4] | IFNγ release (SH-SY5Y) | IFNγ release (IMR-32) | further results
CAS72669VH6-BBz: humanized VHH anti-GPC2 CAR (4-1BB, CD3ζ), SEQ ID NO: 226; tested as CAR T cells (protein, expressed in CAR T cells; CAS72669VH6-BBz) MALPVTALLLPLALLLHAARPQVQLVESGGGVVQPGGSLRLSCAASRFTYSSYCMGWIRQAPGKGREGVAIFYTGGGRTYYADSVKGRFTISQDNSKNTLYLQMNSLRAEDTAVYYCVAGFYCSGGYWEGDFGYWGQGTLVTVSSTTTPAPRPPTPAPTIASQPLSLRPEACRPAAGGAVHTRGLDFACDIYIWAPLAGTCGVLLLSLVITLYCKRGRKKLLYIFKQPFMRPVQTTQEEDGCSCRFPEEEEGGCELRVKFSRSADAPAYKQGQNQLYNELNLGRREEYDVLDKRRGRDPEMGGKPRRKNPQEGLYNELQKDKMAEAYSEIGMKGERRRGKGHDGLYQGLSTATKDTYDALHMQALPPR | no cytotoxicity | – | – | – | – | treated mice alive at the end of observation [1, 5]: 100%; tumor regression compared with CAS71529VH6-BBz [1, 5]: more pronounced; tumor-free mice (number of mice) ([1]; day 42 post treatment): 2/5; tumor-free mice (percent) ([1]; day 42 post treatment): 40%; tumor burden compared with untransduced T cell-treated group ([1]; fourteen days after treatment, 5×10^6 CAR T cells i.v., FIG. 9A): reduced tumor burden; percentage of CAR T cells in peripheral blood ([1]; mouse, in vivo): less than 1%
CAS72052VH5-AS71529VH5-BBz: bivalent tandem anti-GPC2 CAR (4-1BB, CD3ζ), SEQ ID NO: 240; tested as CAR T cells (protein, expressed in CAR T cells; CAS72052VH5-AS71529VH5-BBz) MALPVTALLLPLALLLHAARPQVQLVESGGGVVQPGGSLRLSCAVSGFRYASYCMGWFRQAPGKGLEGVAAIHSDGIIRYAESVKGRFTISKDNSKNTLYLQMNSLRAEDTAVYYCAAGAYCGADAILTLYDYAFWGQGTLVTVSSGGGGSGGGGSGGGGSEVQLVESGGGLVQPGGSLRLSCAVSEYRYSSRYCMGWFRQAPGKGLEGVSAIDSNGSADYVDSVKGRFTISKDNSKNTLYLQMNSLRAEDTAVYYCAADHLAYDCYSGATSVFRYWGQGTLVTVSSTTTPAPRPPTPAPTIASQPLSLRPEACRPAAGGAVHTRGLDFACDIYIWAPLAGTCGVLLLSLVITLYCKRGRKKLLYIFKQPFMRPVQTTQEEDGCSCRFPEEEEGGCELRVKFSRSADAPAYKQGQNQLYNELNLGRREEYDVLDKRRGRDPEMGGKPRRKNPQEGLYNELQKDKMAEAYSEIGMKGERRRGKGHDGLYQGLSTATKDTYDALHMQALPPR | – | equivalent or better cytolytic activity | 83.00±4.58% | high levels of IFNγ | high levels of IFNγ | –
CAS78117VH4-BBz: humanized VHH anti-GPC2 CAR (4-1BB, CD3ζ), SEQ ID NO: 227; tested as CAR T cells (protein, expressed in CAR T cells; CAS78117VH4-BBz) MALPVTALLLPLALLLHAARPEVQLVESGGGLVQPGGSLRLSCIVSRYTYATYSMAWFRQAPGKGLEGVSGLDSVGATGYAESVKGRFTISRDNSKNTLYLQMNSLRAEDTAVYYCVVDPASAKVTYGSWSTPSYAYWGQGTLVTVSSTTTPAPRPPTPAPTIASQPLSLRPEACRPAAGGAVHTRGLDFACDIYIWAPLAGTCGVLLLSLVITLYCKRGRKKLLYIFKQPFMRPVQTTQEEDGCSCRFPEEEEGGCELRVKFSRSADAPAYKQGQNQLYNELNLGRREEYDVLDKRRGRDPEMGGKPRRKNPQEGLYNELQKDKMAEAYSEIGMKGERRRGKGHDGLYQGLSTATKDTYDALHMQALPPR | no cytotoxicity | – | – | – | – | –
CAS71529VH6-AS70950VH6-BBz: bivalent tandem anti-GPC2 CAR (4-1BB, CD3ζ), SEQ ID NO: 242; tested as CAR T cells (protein, expressed in CAR T cells; CAS71529VH6-AS70950VH6-BBz) MALPVTALLLPLALLLHAARPEVQLVESGGGLVQPGGSLRLSCAVSEYRYSSRYCMGWFRQAPGKGREGVAAIDSNGSADYVDSVKGRFTISKDNSKNTLYLQMNSLRAEDTAMYYCAADHLAYDCYSGATSVFRYWGQGTLVTVSSGGGGSGGGGSGGGGSEVQLVESGGGLVQPGGSLRLSCAISEFTYKNTCVGWFRQAPGKGREGVAAIDSDGNTNYVDSVKGRFTISQDNSKNTVYLQMNSLRAEDTAMYYCAAGAYCGRLLLWIGNYAYWGQGTLVTVSSTTTPAPRPPTPAPTIASQPLSLRPEACRPAAGGAVHTRGLDFACDIYIWAPLAGTCGVLLLSLVITLYCKRGRKKLLYIFKQPFMRPVQTTQEEDGCSCRFPEEEEGGCELRVKFSRSADAPAYKQGQNQLYNELNLGRREEYDVLDKRRGRDPEMGGKPRRKNPQEGLYNELQKDKMAEAYSEIGMKGERRRGKGHDGLYQGLSTATKDTYDALHMQALPPR | – | equivalent or better cytolytic activity | 70.33±4.93% | high levels of IFNγ | high levels of IFNγ | –
CAS79236VH6-BBz: humanized VHH anti-GPC2 CAR (4-1BB, CD3ζ), SEQ ID NO: 233; tested as CAR T cells (protein, expressed in CAR T cells; CAS79236VH6-BBz) MALPVTALLLPLALLLHAARPEVQLVESGGGLVQPGGSLRLSCAVSGYTYSSYCMAWFRQAPGKGLEGVASIDAGGRTTYVDSVKGRFTISKDNAKNSLYLQMNSLRAEDTAMYYCAVDVRTRCGGTWDGEAVYFPYWGQGTLVTVSSTTTPAPRPPTPAPTIASQPLSLRPEACRPAAGGAVHTRGLDFACDIYIWAPLAGTCGVLLLSLVITLYCKRGRKKLLYIFKQPFMRPVQTTQEEDGCSCRFPEEEEGGCELRVKFSRSADAPAYKQGQNQLYNELNLGRREEYDVLDKRRGRDPEMGGKPRRKNPQEGLYNELQKDKMAEAYSEIGMKGERRRGKGHDGLYQGLSTATKDTYDALHMQALPPR | no cytotoxicity | – | – | – | – | –
